Test results: patent US9957295B2, “Peptides inhibiting cold-inducible RNA binding protein activity” (The Feinstein Institute for Medical Research, priority 2013, dated 2018)

Experiments:
healthy rats = test: Administration of recombinant CIRP to healthy rats; type: in vivo, rat
Procedure: As an index of the inflammatory cytokine cascade and the acute inflammatory response, supernatants from cells incubated with recombinant CIRP were measured for TNF-α and IL-6 levels in serum, tissue homogenates, and culture medium grown with macrophages using a commercially available enzyme-linked immunosorbent assay (ELISA) kits (BioSource International, Camarillo, Calif.) according to the manufacturer's instruction. To quantify TNF-α and IL-6 protein levels in serum and tissue, serum samples were harvested 4 h after hemorrhage, or 4 h after treatment with recombinant CIRP from animals by cardiac puncture at the time that the rats were sacrificed, and collected tissue samples, and carried out by the same method as above. HMGB1 levels were determined by Western blotting.
Serum concentrations of aspartate aminotransferase (AST), alanine aminotransferase (ALT), and lactate were determined by using assay kits according to the manufacturer's instructions (Pointe Scientific, Lincoln Park, Mich.).
Healthy rats were intravenously administered rmCIRP (1 mg/kg BW) or normal saline (vehicle). After the injection of rCIRP (1 mg/kg BW) or buffer solution (same volume), as control, serum levels of TNF-α increased markedly in the rCIRP group, about 5 fold higher than buffer (sham) group (FIG. 4A). […] RAW 264.7 cells were incubated with indicated concentrations of rmCIRP for 20 h. HMGB1 levels in conditioned medium (CM) were determined by Western blotting. Band intensities were quantified with densitometry. […] After 4 hours, blood and tissues were collected for analysis. […] Data are mean±s.e.m., n=6-9/group, *P<0.05 vs. vehicle.
In additional groups of normal healthy animals, rCIRP, for example rmCIRP (1 mg/kg BW) or buffer (same volume, 1 ml) were administered. At 4 h after the completion of treatment, blood samples were collected and placed on ice to allow clotting, and then were centrifuged at 1200 g for 10 min at 4° C., and the serum samples were stored at −80° C. until assayed. […]

THP-1 cells = test: TNF-α release from differentiated THP-1 cells stimulated with recombinant proteins; type: cell-based, human; settings: 0.3 μg/ml each protein, 8 h, ELISA
Procedure: As with the murine model, the stimulation of TNF-α, release by rCIRP in a human model was studied. […] These experiments were conducted by incubating differentiated human THP-1 cells with rhCIRP or rmCIRP at the indicated concentrations for 4 h. *P<0.05 vs. no CIRP. Similarly, human PBMC were incubated with the indicated concentrations of rhCIRP for 8 h. *P<0.05 vs. no rhCIRP. Thus, stimulation of cytokine release by CIRP was not attributable to LPS contamination. Furthermore, CIRP-induced cytokine activation was conserved between rodents and humans.
rmCIRP induced TNF-α and HMGB1 release in macrophages (FIGS. 10a, b and c). It was reported that HMGB1 can also stimulate TNF-α release (Andersson, U., et al. High mobility group 1 protein (HMG-1) stimulates proinflammatory cytokine synthesis in human monocytes. J. Exp. Med. 192, 565-570 (2000)). The relationship between CIRP and HMGB1 on stimulating TNF-α release was analyzed by applying respective neutralizing antibodies. […] After 4 h, TNF-α levels in conditioned medium (CM) were assayed by ELISA. Data are mean±s.e.m. from three independent experiments. *P<0.05 vs. rmCIRP+ control IgG. In FIG. 16D, RAW 264.7 cells were pre-incubated with rabbit control IgG or anti-CIRP antibodies at indicated dilutions of 1 mg/ml for 20 min before adding 1.0 μg/ml rmCIRP. After 4 h, TNF-α levels in CM were assayed by ELISA. Data are mean±s.e.m. from three independent experiments. *P<0.05 vs. rmCIRP+ control IgG. THP-1 cells were incubated with 4 μg/ml of anti-CIRP antibodies, anti-HMGB1 antibodies, or non-immunized control IgG for 1 h prior to adding rmCIRP (0.3 μg/ml), rmHMGB1 (0.3 μg/ml), or rmCIRP/rmHMGB1 (0.3 μg/ml, 0.3 μg/ml) for 8 h. *P<0.05 vs. rmCIRP; #P<0.05 vs. rmHMGB1. […] Furthermore, rmCIRP, rmHMGB1, and rmCIRP plus rmHMGB1 induced TNF-α levels of 0.8, 0.6, and 1.6 ng/ml, respectively. […] TNF-α levels in all collected CM were assayed by ELISA. Data are mean±s.e.m. from three or four independent experiments.
Murine macrophage-like RAW 264.7 cells and human monocyte THP-1 cells were obtained from ATCC (Manassas, Va.). […]

B1: rmCIRP: recombinant murine (rat sequence) His-tagged CIRP expressed in E. coli (protein)
chain: MASDEGKLFVGGLSFDTNEQALEQVFSKYGQISEVVVVKDRETQRSRGFGFVTFENIDDAKDAMMAMNGKSVDGRQIRVDQAGKSSDNRSRGYRGGSAGGRGFFRGGRSRGRGFSRGGGDRGYGGGRFESRSGGYGGSRDYYASRSQGGSYGYRSSGGSYRDSYDSYATHNEHHHHHH
Healthy rats; 1 mg/kg BW
  serum TNF-α versus buffer (sham) group: about 5 fold
Healthy rats; 1 mg/kg BW intravenous, 4 hours, vs normal saline
  serum TNF-α, IL-6, HMGB1 levels and organ injury markers AST and ALT: significantly increased
Healthy rats; 1 mg/kg BW, normal healthy rats
  serum levels of AST and ALT: significantly elevated
THP-1 cells
  induced TNF-α levels: 0.8 ng/mL
